Test results from patent US8772235B2, “Compounds having peptides conjugated to bone targeting moieties and methods of making and using thereof” (The Governors of the University of Alberta, priority 2009, dated 2014).

Test: Circular dichroism, secondary structure of sCT, sCT-SMCC and sCT-BP
Type: physicochemical
Settings: 20 mM acetate buffer pH 5.0, 400 μg/mL sCT or equivalent
Protocol: For a more detailed analysis of the influence of BP coupling on secondary structural confirmation of sCT, the circular dichroism (CD) spectrum of sCT, sCT-SMCC and sCT-BP was measured in the 20 mM acetate buffer pH 5.0. CD spectra were obtained with a ConvCD spectrophotometer instrument. Spectra were acquired over a wavelength range of 190 to 260 nm. The N2 flow rate was set at 5 l/min. The sample cuvette was cleaned with 20 mM Sodium Acetate buffer pH 5, and the spectra of test samples, which comprised of 400 μg/mL of sCT or equivalent the same buffer, were recorded with the corresponding buffer serving as blanks.

Salmon calcitonin [sCT, reference compound]
secondary structure by CD spectrum: random coil conformation
